Target: T1, RUVBL2-His (human, UniProt Q9Y230 1-463)
T1 construct: RUVBL2, AAA+ ATPase; cDNA amplified from a Mammalian Gene Collection clone, cloned into pET-23a+; also called polyhistidine-tagged RUVBL2; source: E. coli One Shot BL21 Star DE3, purified (Ni-NTA agarose)
Assay: pull-down; 500 ng GST-tagged protein with 100 ng His-tagged protein and glutathione beads in 1 ml binding buffer (50 mM NaCl, 50 mM HEPES-KOH pH 7.6, 0.1% NP-40), 2 h at 4 °C; in presence of ATP, ADP or γ-S-ATP; immunoblot
Conditions: both partners purified

T1 sequence (Q9Y230 whole entry): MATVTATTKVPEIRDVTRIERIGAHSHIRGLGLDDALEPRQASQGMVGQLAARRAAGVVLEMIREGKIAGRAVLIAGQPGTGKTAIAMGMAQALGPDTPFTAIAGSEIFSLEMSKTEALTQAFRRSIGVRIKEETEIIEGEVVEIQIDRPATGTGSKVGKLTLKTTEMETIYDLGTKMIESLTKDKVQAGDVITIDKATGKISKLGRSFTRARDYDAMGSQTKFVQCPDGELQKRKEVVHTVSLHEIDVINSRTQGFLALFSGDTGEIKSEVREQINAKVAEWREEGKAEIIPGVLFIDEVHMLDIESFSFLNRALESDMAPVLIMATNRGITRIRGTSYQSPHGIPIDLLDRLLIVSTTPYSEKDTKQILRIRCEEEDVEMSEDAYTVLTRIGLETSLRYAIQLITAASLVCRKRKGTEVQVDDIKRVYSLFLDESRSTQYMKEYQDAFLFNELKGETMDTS

B1: GST-ZNHIT2 (full-length) (natural protein, human, UniProt Q9UHR6 1-403, looked up)
chain: MEPAGPCGFCPAGEVQPARYTCPRCNAPYCSLRCYRTHGTCAENFYRDQVLGELRGCSAPPSRLASALRRLRQQRETEDEPGEAGLSSGPAPGGLSGLWERLAPGEKAAFERLLSRGEAGRLLPPWRPWWWNRGAGPQLLEELDNAPGSDAAELELAPARTPPDSVKDASAAEPAAAERVLGDVPGACTPVVPTRIPAIVSLSRGPVSPLVRFQLPNVLFAYAHTLALYHGGDDALLSDFCATLLGVSGALGAQQVFASAEEALQAAAHVLEAGEHPPGPLGTRGAMHEVARILLGEGPTNQKGYTLAALGDLAQTLGRARKQAVAREERDHLYRARKKCQFLLAWTNENEAALTPLALDCARAHQAHAVVAEEVAALTGELERLWGGPVPPAPRTLIEELPS
notes: ZNHIT2, human ZNHIT family member; cDNA amplified from a Mammalian Gene Collection clone, cloned into pGEX-4T-1; also called GST-tagged ZNHIT2; source: E. coli One Shot BL21 Star DE3, purified (Glutathione Sepharose 4B)
- binding result: binds

Reference: article PMC5460035 (Nature Communications, 2017)
